Measurements as given in patent publication US20260258115A1.
Where a chain is given by its changes, count along the chain named.

B1: ADI-41234 (antibody, V domains shown)
VH: QVQLVQSGGGVVQPGRSLRLSCAASGFTVSSYAIHWVRQSAGKGLEWVAVEGRFTISRDNSKNTLYLQMNSLRAEDTAVYYCARLSEALVEPAAHTQYKYHYGLDVWGQGTTVTVSS
VL: EIVLTQSPLSLPVTPGEPASISCKSSQSLLDSNGYNYLDWYLQKPGQSPQLLIYLVSNRASGVPDRFSGSGSGTDFTLKISRVEAEDVGIYYCMQALQTPWTFGQGTKVEIK
B2: ADI-41227 (antibody, V domains shown)
VH: RSSWCSVGAEVKKRGSSVKVSCKASGGTFGGYAVSWVRQAPGQGLEWMGGIIPMFYTTKYAQKLQGRVTITADESTNTAYMDLSSLTSDDTAIYFCAREWHLGRTAVTGTGAFLDAFDIWGQGTMVTVSS
VL: SYELTQPPSVSEAPRQRVTISCSGSSSNIGNNAVNWYQQLPGKAPKLLIYYDDLLPSGVSDRFSGSKSGTSASLAISGLQSEDEADYYCSAWDDSLNGWVFGGGTKLTVL
B3: ADI-41206 (antibody, V domains shown)
VH: EVQLLESGGGLVKPGGSLRLSCAGSGFSFSSYSMNWVRQAPEKGLEWVSSISASSSFINYADSVKGRFIISRDNAKNSLFLQMDSLRAEDTAVYYCARDGVHPGGYIFGGYIDSWGQGTLVTVSS
VL: QSVLTQPPSVSGAPGQRVTISCTGSSSNIGAGYDVHWFRQLPGTAPKLLIYGNNNRPSGVPDRFSGSKSGSSASLIITGLQAQDEATYYCQSYDSSLSGYVFGTGTKLTVL
B4: ADI-41233 (antibody, V domains shown)
VH: EVQLLESGGGLVKPGGSLRLSCAASGFIFRDYYMIWIRQAPGKGLEWVSYISSSSTYTNNADSVKGRFTISRDNAKNSLYLQMNSLRAEDTAVYYCARLFASRSDGAFDIWGQGTTVTVSS
VL: B3 VL with F38Y, R39Q, G43E, G52D, S71T, I76A, Q83E, T87D, K107T, L108V
B5: ADI-41216 (antibody, V domains shown)
VH: EVQLVESGGGLVKPGESLRLSCAASGFRFSDHYMSWIRQAPGKGLEWISYISSSSSYIHYADSVTGRFTISRDNAKNSMYLQMNSLRAEDTAVYYCAREIGRSYYMDVWGKGTTVTVSS
VL: QSALIQPPSVSGAPGQRVTISCTGSSSNIGAGYDVHWYQQLPGTAPKLLIYGNNNRPSGVPDRFSASKSGISASLAITGVQTEDEADYYCQSYDRSLSEFYVFGSGTKVTVL
B6: ADI-41210 (antibody, V domains shown)
VH: QVQLVQSGAEVKKPGASVKVSCKASGYTFNNYGISWVRQAPGQGLEWMGWISAYNGDIKYAQKFQGRVTVTTDTSTSTAYMELRSLRSDDTAVYYCARDTPVGGGTQTFDYWGQGTLVTVSS
VL: ETTLTQSPLSLPVTLGQPASISCRSSQSLVHSNGNTYLNWFQQRPGQSPRRLIYTVSNRDSGVPDRFSGSGSGTDFTLKISRVEAEDVGVYYCMQATHRPGTFGQGTKVEIK
B7: ADI-41217 (antibody, V domains shown)
VH: EVQLVQSGGGLVKPGGSLRLSCVASGFTFSSYSMNWVRQAPGKGLEWVSSISASSSYIDYADSVKGRFTISRDNDKKSLYLQMSSLRAEDTAVYYCAREDYDSLTGYYSPKRFDPWGQGTLVTVSS
VL: QSVLTQPPSLSGAPGQRVTISCTGSSSNIGAGYDVHWYQQLPGTAPKLLIYGNNNRPSGVPDRFSGSKSGTSASLAITGLQAEDEADYYCQSYDRSLSVVFGGGTKVTVL
B8: ADI-41226 (antibody, V domains shown)
VH: EVQLVESGGGLVKPGGSLRLSCAASRFTFAGYYMSWIRQAPGKGLEWVSDISPSSTYTNYADSVKGRFTISRDNAGTSVSLQMDSLRADDTAVYYCARITPYGGSHYFDSWGQGTLVTVSS
VL: QPVLTQPPSVSGAPGQRVTISCTGSSSNIGAGYDLHWYQQLPGTAPKLLIYGNSNRPSGVPDRFSGSKSGTSASLAITGLQAEDEADYYCQSYDNSLSGFYVFGTGTKVTVL
B9: ADI-41289 (antibody, V domains shown)
VH: EVQLVQSGAEVKKPGESLKISCKGSGYSFSSFWIGWVRQMPGKGLEWMGIIYPGDSDTRYSPSFQGQVTISADQSIRTAYLQWNSLKASDTGLYYCAKGGLGDVEMATIAVWGQGTLVTVSS
VL: QSVLIQPASVSGSPGQSITIPCTGTSSDVGSYNLVSWYQHHPGKAPKLIISEGSKRPLGVSNRFSGSKSGNTASLTISGLQAEDEADYYCSSYVRSRTFNYVFGTGTKLTVL
B10: ADI-41252 (antibody, V domains shown)
VH: EVQLVQSGAEVKKPGESLKISCMGSGYNFPNYWIGWVRQMSGKGLEWMGIIYPDDSDTTYSPSFQGQVIFSADKSISTAYLQWSSLKASDTAMYFCVRLDKTTQIDFWGQGTLVTVSS
VL: EIVLTQSPSSLSASVGDRVTITCQASQDISNYLNWYQQKPGKAPKLLIYDVSNLETGVPSRFSGSGSGTDFTFTISSLQPEDIATYYCQQHDNLPLTFGQGTRLEIK
B11: ADI-41236 (antibody, V domains shown)
VH: QVQLVQSGGGLVKPGGSLRLSCTASGFTFSDYYMDWIRQAPGKGLEWVSSISSSSTYTKYADSVKGRFTISRDNAKNSLFLQMNSLRAEDTAVYYCVRNLGPYCSSTSCFVFDYWGQGTLVTVSS
VL: QSVLTQPPSVSGAPGQRVSISCTGSSSNIGAGYEVHWYKQVPGTAPRLLMYDNTNRPSGVPDRVSGSKSGTSASLAITGLQAEDEADYYCQSYDNSLNKSVFGGGTKVTVL
B12: ADI-41240 (antibody, V domains shown)
VH: QVQLQQWGAGLLKPSETLSLICDVYGGSFSDYYWSWIRQSPGKGLEWIGEINHSGSTSFHPSLKSRISISIDTSNNQFSLNLSSMTAADTAVYYCARGTLRGYFDYWGQGTLVTVSS
VL: EIVLTQSPSTLSAFVGDRVTITCRASQSISRWLAWYQQKPGKAPNLLISEASSLESGVPSRFSGSGSGTEFTLTISSLQPDDLGTYYCQQYNGYLWTFGQGTKVEIK
B13: ADI-41244 (antibody, V domains shown)
VH: QVTLKESGGGLIQPGGSLRLSCAVSGFTVSSKYMSWVRQAPGKGLEWVSVIYGGGSTYYTDSVKGRFTISRDNSNNTLYLQMNSLRAEDTAIYYCAREARSYNYDYVGNDAFDIWGQGTTVTVSS
VL: DIVLTQTPDSLAVSLGERATINCKSSQSVLNNFNNKNYLAWYQQKPGQPPKLLIYWASTRESGVPDRFSGSGSGTDFTLTITSLQAEDVAIYYCQQYYRTPPYTFGQGTKVDIK
B14: ADI-41241 (antibody, V domains shown)
VH: QVQLVQSGAEVKKPGASVQVSCKASGYTFTGDYMHWVRQAPGQGLEWMGRINPNSGGTNYAQKFQGRVTMTRDTSISTAYMELSRLRSDDTAVYYCARAAAEYSSSSPTSYYYMDVWGKGTTVTVSS
VL: EIQMTQSPSSLSASVGDRVTITCRASQNIYSFLNWYQQKPGKAPKLLIYAASSLQSGVPSRFSGSGSATDFTLTISSLQPEDFATYYCQQSYSPPQITFGQGTKVDIK
B15: ADI-41248 (antibody, V domains shown)
VH: QVQLVQSGGGVVQPGRSLRLSCAASGFTFSSYSMHWVRQAPGKGLEWMAVCWYDGSNIYYADSVKGRFTISRDNSKNTVYLQMNSLRAEDTAVYYCARDDRYCSGGTCLSAFDIWGQGTMVTVSS
VL: ETTLTQSPSSLSASVGDRVTITCRASQSISSYLNWYQQKPGRAPKLLIYTTSSLQSGVSSRFSGSGSGTDFTLTINSLQPEDFATYYCQQSYSTPNTFGQGTKVEIK
B16: ADI-41247 (antibody, V domains shown)
VH: QVQLVQSGAEVKKPGASLQVSCKASGYTFTDSYFHWVRQAPGQGLEWMGRISPHSGGTNYAQKFQGRVTMTRDTSISTAYLELSRLRSDDTAVYYCATEGPRGPFRFDPWGQGTLVTVSS
VL: NFMLTQPHSVSESPGKTVTISCTRSSGSIASNYVQWYQQRPGSSPTTVIYEDNQRPSGVPDRFSGSIDSSSNSASLTISGLMTEDEADYYCQSYDSSNWVFGGGTKLTVL
B17: ADI-41235 (antibody, V domains shown)
VH: QVQLQQWGAGLLKPSETLSLTCGVYGESFSGHYWSWIRQPPGKGLEWMGEIHHSGTTNYNPSLKSRVTISVDTSKNQFSLKLNSVTAADTAVYYCARNPAEDILTGYSPPFHYYYMDVWGKGTTVTVSS
VL: B7 VL with L10V, L41I, Y51H, G52S, R95S, V107L
B18: ADI-41243 (antibody, V domains shown)
VH: QVQLVQSRAEVKKPGESLKISCKGSLHSFSNNWIGWVRQMPGKGLEWMGIIFPDDSDTRYSPSFQGQVTISADKSISTAYLQWSSLKASDTAIYYCGTVVTLIQGVADWGQGTLVTVSS
VL: QPVLTQPHSVSESPGKTVTISCTRSSGSIDSSYVQWYQQRPGSSPTTVIYEDNLRPSGVPDRFSGSIDSSSNSASLTISGLKTEDEAEYYCQSYDSSNPVVFGGGTKLTVL
B19: ADI-41250 (antibody, V domains shown)
VH: QVQLQQWGAGLLKPSETLSLTCAVSGESLTGYFWSWIRQPPGKGLEWIGEVSHSGSTNYNPSLKSRVTMSVDTSKTQFSLKLNSVTAADTAVYYCARGYDYWSGTARYFDYWGQGILVTVSS
VL: QPVLTQPASVSGSPGQSITISCTGTSSDVGGYNYVSWYQQHPGKAPKLMIYDVSNRPSGVSSRFSGSKSGNTASLTISGLQAEDEGDYYCSSYRSSTTSRVFGGGTKVTVL
B20: ADI-41264 (antibody, V domains shown)
VH: EVQLVESGGGLVKPGGSLRLSCAASGFTFSNTWMSWVRQAPGKGLEWVGHIKSKTDGGTTDYAAPVKGRFTISRDDSKSILNLHLNSLKTEDSAVYYCAALPPISGWYYTPGFWGQGTLVTVSS
VL: SYELTQPPSMSVSPGQTARITCFGDAVPKKYVYWYQQKSGQAPVMVIYDDRRRPSGIPERFSGSSSGARATLTISGAQVEDEADYYCYSTDGSGNPSFGGGTKLTVL

target: Respiratory Syncytial Virus fusion glycoprotein (RSV F) on RSV-A2 virus (Respiratory Syncytial Virus subtype A (RSV-A2)); assay: cell-based or functional assay

| Binder | Neutralization IC50 (RSV subtype A) |
| --- | --- |
| B1 | 0.1 µg/mL |
| B2 | > 25 µg/mL |
| B3 | 0.07 µg/mL |
| B4 | 0.15 µg/mL |
| B5 | 0.19 µg/mL |
| B6 | 0.1 µg/mL |
| B7 | 0.04 µg/mL |
| B8 | 0.15 µg/mL |

target: RSV postfusion F (postF, F deltaFP) (Respiratory syncytial virus); assay: BLI, IgG on sensor, 100 nM antigen

| Binder | Kd |
| --- | --- |
| B9 | 0.881 nM |
| B10 | 1 nM |
| B11 | 61.3 nM |
| B12 | 1.2 nM |
| B13 | 0.843 nM |
| B14 | 0.927 nM |
| B15 | 0.392 nM |
| B16 | 1.02 nM |
| B17 | 3.24 nM |
| B18 | 0.418 nM |
| B19 | 0.504 nM |
| B20 | 0.484 nM |

target: RSV prefusion F (preF, DS-Cav1) (Respiratory syncytial virus); assay: BLI, IgG on sensor, 100 nM antigen

| Binder | Kd |
| --- | --- |
| B10 | 1.37 nM |
| B12 | 2.15 nM |
| B14 | 3.84 nM |
| B15 | 3.35 nM |
| B16 | 2.76 nM |
| B17 | 4.72 nM |
| B18 | 3.55 nM |
| B19 | 0.731 nM |

target: RSV prefusion F (preF), DS-Cav1 (Respiratory Syncytial Virus); assay: BLI, IgG on anti-human IgG sensor, 100 nM antigen

| Binder | Kd |
| --- | --- |
| B1 | 1.46 nM |
| B2 | 4.62 nM |
| B3 | 0.409 nM |
| B4 | 1.06 nM |
| B5 | 0.903 nM |
| B6 | 0.47 nM |
| B7 | 0.489 nM |
| B8 | 0.82 nM |
